Columns and labels:
Test in all cases: SPR
[1] = molecular target: T1, recombinant human Melanotransferrin MTf(20-709) extracellular domain (human, UniProt P08582-1 20-709, N-glycans at Asn 38, Asn 135 and Asn 515 (high mannose N-glycans favoured by kifunensine for crystallization))
T1 chain: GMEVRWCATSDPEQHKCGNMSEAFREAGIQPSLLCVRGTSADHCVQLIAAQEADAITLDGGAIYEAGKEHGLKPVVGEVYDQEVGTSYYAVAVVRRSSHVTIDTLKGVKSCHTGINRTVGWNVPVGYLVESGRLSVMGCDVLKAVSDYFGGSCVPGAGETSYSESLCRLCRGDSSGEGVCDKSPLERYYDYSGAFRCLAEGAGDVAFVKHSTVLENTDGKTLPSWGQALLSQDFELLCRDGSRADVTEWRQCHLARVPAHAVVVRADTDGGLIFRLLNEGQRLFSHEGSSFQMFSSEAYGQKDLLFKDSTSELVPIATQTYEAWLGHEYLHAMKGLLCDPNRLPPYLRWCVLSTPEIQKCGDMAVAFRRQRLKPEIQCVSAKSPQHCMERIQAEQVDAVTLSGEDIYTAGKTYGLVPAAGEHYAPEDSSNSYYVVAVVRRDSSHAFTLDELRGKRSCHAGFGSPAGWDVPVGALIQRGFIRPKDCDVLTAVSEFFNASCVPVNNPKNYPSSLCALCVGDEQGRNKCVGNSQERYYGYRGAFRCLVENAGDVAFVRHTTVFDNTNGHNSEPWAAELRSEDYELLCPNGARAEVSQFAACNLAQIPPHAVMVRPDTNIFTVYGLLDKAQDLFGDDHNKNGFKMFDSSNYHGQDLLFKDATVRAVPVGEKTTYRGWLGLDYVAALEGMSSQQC

[2] = molecular target: recombinant cynomolgus monkey MTf(20-709) extracellular domain (cynomolgus monkey)
[3] = molecular target: T1, recombinant human Melanotransferrin …

- koff [1]: 0.00048 s⁻¹
- Kd [2]: 1.1 nM
- koff [2]: 0.00047 s⁻¹
- Kd [3]: 1 nM
B1: SC57.32 Fab fragment (Fab, V domains shown)
VH: QVQLQQSGAELMKPGASVKISCKATGYTFSNYRIEWIKQRPGHGLEWIGEILPRGGNTNYNEKFKGKATFTADTSSNTAYMQLTSLTSEDSAVYYCARDDGYYGRFAYWGQGTLVTVSA
VL: DIQMTQTTSSLSASLGDRVTISCRASQDISNYLNWYQQKPDGTVKLLIFYTSRLHSGVPSRFSGSGSGTDYSLTISNLEQEDFATYFCQQGNTLPPTFGGGTKLEIK

Source: paper PMC7804310 (2021)
